Results as given in article PMC7949025, “Biophysical characterization of the ETV6 PNT domain polymerization interfaces” (The Journal of Biological Chemistry, 2021).

T1: biotinylated A93D-PNT domain (ETV6 residues 43-135, A93D, with Avitag) (human, UniProt P41212 43-135, A93D, biotin on the Avitag (~50 to 95% biotinylated))
T1 construct: ETV6, human, residues 43-135; made from the V112E construct by introducing A93D and E112V; also called biotinylated A93D-PNT domain ligand; A93D-PNT domain ligand; source: E. coli BL21 (λDE3) co-transformed with pET21a-BirA, purified (Ni-NTA, thrombin cleavage); not shown: His6, N-terminal, cleaved; Avitag, N-terminal, kept
T1 sequence (looked up): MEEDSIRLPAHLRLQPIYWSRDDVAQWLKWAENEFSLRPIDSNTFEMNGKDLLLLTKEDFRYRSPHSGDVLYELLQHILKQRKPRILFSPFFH

T2: biotinylated V112E-PNT domain (ETV6 residues 43-135, V112E, with Avitag) (human, UniProt P41212 43-135, V112E, biotin on the Avitag (~50 to 95% biotinylated))
T2 construct: ETV6, human, residues 43-135 of V112E ETV6; also called biotinylated V112E-PNT domain ligand; V112E-PNT domain ligand; source: E. coli BL21 (λDE3) co-transformed with pET21a-BirA, purified (Ni-NTA, thrombin cleavage); not shown: His6, N-terminal, cleaved; Avitag, N-terminal, kept
T2 sequence (looked up): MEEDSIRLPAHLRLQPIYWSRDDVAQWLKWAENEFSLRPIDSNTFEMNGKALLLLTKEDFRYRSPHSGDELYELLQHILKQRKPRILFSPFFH


biological target: T1, biotinylated A93D-PNT domain (ETV6 …); assay: SPR; biotinylated A93D-PNT domain ligand captured on streptavidin Sensor Chip SA, PNT domain analytes flowed; Biacore X100, 25 °C, HBS-EP+ (10 mM HEPES, 150 mM NaCl, 3 mM EDTA, 0.05% v/v Tween-20, pH 7.4); analyte 0.2-60 nM, re-run at 20-6000 nM if KD > 60 nM; details: both partners purified
Outline: (§1)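 ETV6 PNT domain (residues 43-135), biotinylated through an Avitag, was diluted to 50 μg/ml in HBS-EP+ and captured on a streptavidin Sensor Chip SA in a Biacore X100 run at 25 °C. PNT domain analytes were passed over the chip at 0.2, 2, 20, 40 and 60 nM, or at 20-6000 nM in repeat runs where binding was weaker. Between cycles the chip was regenerated with 0.2% SDS for 30 s. The Biacore kinetics/affinity software wizard gave the association and dissociation rate constants and the equilibrium dissociation constant.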

Kd [nM] | koff [s⁻¹] | kon [M⁻¹ s⁻¹] | Binder
5.1 | 0.0023 | 440000 | V112E-PNT domain (ETV6 residues 40-125 with the V112E mutation) (domain or fragment, human, UniProt P41212 40-125, looked up, ETV6 PNT domain fragment, human, residues 40-125; expressed as residues 1-125 and cut by thrombin at the internal site V37-P38-R39/A40; 15N- or 13C/15N-labelled or unlabelled in NMR; also called V112E-PNT domain analyte; source: E. coli BL21 (λDE3), purified (Ni-NTA, thrombin cleavage, Superdex S75; size exclusion omitted for SPR); not shown: His6, N-terminal, cleaved) ALRMEEDSIRLPAHLRLQPIYWSRDDVAQWLKWAENEFSLRPIDSNTFEMNGKALLLLTKEDFRYRSPHSGDELYELLQHILKQRK
7 | 0.0035 | 500000 | E100A-V112E-PNT domain (domain or fragment, human, UniProt P41212 40-125, looked up, ETV6 PNT domain, human; source: E. coli BL21 (λDE3), purified (Ni-NTA, thrombin cleavage); not shown: His6, N-terminal, cleaved) ALRMEEDSIRLPAHLRLQPIYWSRDDVAQWLKWAENEFSLRPIDSNTFEMNGKALLLLTKADFRYRSPHSGDELYELLQHILKQRK
8.1 | 0.004 | 500000 | E88A-V112E-PNT domain (domain or fragment, human, UniProt P41212 40-125, looked up, ETV6 PNT domain, human; source: E. coli BL21 (λDE3), purified (Ni-NTA, thrombin cleavage); not shown: His6, N-terminal, cleaved) ALRMEEDSIRLPAHLRLQPIYWSRDDVAQWLKWAENEFSLRPIDSNTFAMNGKALLLLTKEDFRYRSPHSGDELYELLQHILKQRK
340 | 0.033 | 97000 | M89A-V112E-PNT domain (domain or fragment, human, UniProt P41212 40-125, looked up, ETV6 PNT domain, human; source: E. coli BL21 (λDE3), purified (Ni-NTA, thrombin cleavage); not shown: His6, N-terminal, cleaved) ALRMEEDSIRLPAHLRLQPIYWSRDDVAQWLKWAENEFSLRPIDSNTFEANGKALLLLTKEDFRYRSPHSGDELYELLQHILKQRK
1000 | 0.0095 | 9500 | L96A-V112E-PNT domain (domain or fragment, human, UniProt P41212 40-125, looked up, ETV6 PNT domain, human; source: E. coli BL21 (λDE3), purified (Ni-NTA, thrombin cleavage); not shown: His6, N-terminal, cleaved) ALRMEEDSIRLPAHLRLQPIYWSRDDVAQWLKWAENEFSLRPIDSNTFEMNGKALLALTKEDFRYRSPHSGDELYELLQHILKQRK
400 | 0.0025 | 6300 | D101A-V112E-PNT domain (domain or fragment, human, UniProt P41212 40-125, looked up, ETV6 PNT domain, human; source: E. coli BL21 (λDE3), purified (Ni-NTA, thrombin cleavage); not shown: His6, N-terminal, cleaved) ALRMEEDSIRLPAHLRLQPIYWSRDDVAQWLKWAENEFSLRPIDSNTFEMNGKALLLLTKEAFRYRSPHSGDELYELLQHILKQRK
62 | 0.022 | 350000 | K92A-V112E-PNT domain (domain or fragment, human, UniProt P41212 40-125, looked up, ETV6 PNT domain, human; source: E. coli BL21 (λDE3), purified (Ni-NTA, thrombin cleavage); not shown: His6, N-terminal, cleaved) ALRMEEDSIRLPAHLRLQPIYWSRDDVAQWLKWAENEFSLRPIDSNTFEMNGAALLLLTKEDFRYRSPHSGDELYELLQHILKQRK
700 | 0.068 | 98000 | L97A-V112E-PNT domain (domain or fragment, human, UniProt P41212 40-125, looked up, ETV6 PNT domain, human; source: E. coli BL21 (λDE3), purified (Ni-NTA, thrombin cleavage); not shown: His6, N-terminal, cleaved) ALRMEEDSIRLPAHLRLQPIYWSRDDVAQWLKWAENEFSLRPIDSNTFEMNGKALLLATKEDFRYRSPHSGDELYELLQHILKQRK
5.8 | 0.0025 | 430000 | I59A-V112E-PNT domain (domain or fragment, human, UniProt P41212 40-125, looked up, ETV6 PNT domain, human; source: E. coli BL21 (λDE3), purified (Ni-NTA, thrombin cleavage); not shown: His6, N-terminal, cleaved) ALRMEEDSIRLPAHLRLQPAYWSRDDVAQWLKWAENEFSLRPIDSNTFEMNGKALLLLTKEDFRYRSPHSGDELYELLQHILKQRK

biological target: T2, biotinylated V112E-PNT domain (ETV6 …); assay: SPR; biotinylated V112E-PNT domain ligand captured on streptavidin Sensor Chip SA, PNT domain analytes flowed; Biacore X100, 25 °C, HBS-EP+ (10 mM HEPES, 150 mM NaCl, 3 mM EDTA, 0.05% v/v Tween-20, pH 7.4); analyte 0.2-60 nM, re-run at 20-6000 nM if KD > 60 nM; details: both partners purified
Outline: as §1

Kd [nM] | koff [s⁻¹] | kon [M⁻¹ s⁻¹] | Binder
7.5 | 0.0015 | 200000 | A93D-PNT domain (ETV6 residues 40-125 with the A93D mutation) (domain or fragment, human, UniProt P41212 40-125, looked up, ETV6 PNT domain fragment, human, residues 40-125; expressed as residues 1-125 and cut by thrombin at the internal site V37-P38-R39/A40; 15N- or 13C/15N-labelled or unlabelled in NMR; also called A93D-PNT domain analyte; source: E. coli BL21 (λDE3), purified (Ni-NTA, thrombin cleavage, Superdex S75; size exclusion omitted for SPR); not shown: His6, N-terminal, cleaved) ALRMEEDSIRLPAHLRLQPIYWSRDDVAQWLKWAENEFSLRPIDSNTFEMNGKDLLLLTKEDFRYRSPHSGDVLYELLQHILKQRK
13 | 0.0034 | 270000 | H119A-A93D-PNT domain (domain or fragment, human, UniProt P41212 40-125, looked up, ETV6 PNT domain, human; source: E. coli BL21 (λDE3), purified (Ni-NTA, thrombin cleavage); not shown: His6, N-terminal, cleaved) ALRMEEDSIRLPAHLRLQPIYWSRDDVAQWLKWAENEFSLRPIDSNTFEMNGKDLLLLTKEDFRYRSPHSGDVLYELLQAILKQRK
8.1 | 0.0021 | 260000 | P107A-A93D-PNT domain (domain or fragment, human, UniProt P41212 40-125, looked up, ETV6 PNT domain, human; source: E. coli BL21 (λDE3), purified (Ni-NTA, thrombin cleavage); not shown: His6, N-terminal, cleaved) ALRMEEDSIRLPAHLRLQPIYWSRDDVAQWLKWAENEFSLRPIDSNTFEMNGKDLLLLTKEDFRYRSAHSGDVLYELLQHILKQRK
450 | 0.015 | 34000 | F77A-A93D-PNT domain (domain or fragment, human, UniProt P41212 40-125, looked up, ETV6 PNT domain, human; source: E. coli BL21 (λDE3), purified (Ni-NTA, thrombin cleavage); not shown: His6, N-terminal, cleaved) ALRMEEDSIRLPAHLRLQPIYWSRDDVAQWLKWAENEASLRPIDSNTFEMNGKDLLLLTKEDFRYRSPHSGDVLYELLQHILKQRK
5 | 0.0015 | 310000 | E100A-A93D-PNT domain (domain or fragment, human, UniProt P41212 40-125, looked up, ETV6 PNT domain, human; source: E. coli BL21 (λDE3), purified (Ni-NTA, thrombin cleavage); not shown: His6, N-terminal, cleaved) ALRMEEDSIRLPAHLRLQPIYWSRDDVAQWLKWAENEFSLRPIDSNTFEMNGKDLLLLTKADFRYRSPHSGDVLYELLQHILKQRK
